# Patent US20150352207A1, “USE OF ANTIBODIES AGAINST ICAM-1 IN COMBINATION WITH AN ANTI CANCER DRUG IN THE TREATMENT OF PATIENTS” (BIOINVENT INTERNATIONAL AB, priority 2013, published 2015)
# Where two headings read alike, the source gives them in different places.
# B1: IgG B11: novel human ICAM-1 antibody targeting the B11 epitope, isolated from the naïve antibody library n-CoDeR (antibody, V domains shown)
# VH: EVQLLESGGGLVQPGGSLRLSCAASGFTFSNAWMSWVRQAPGKGLEWVAFIWYDGSNKYYADSVKGRFTISRDNSKNTLYLQMNSLRAEDTAVYYCARYSGWYFDYWGQGTLVTVSS
# VL: QSVLTQPPSASGTPGQRVTISCTGSSSNIGAGYDVHWYQQLPGTAPKLLIYDNNNRPSGVPDRFSGSKSGTSASLAISGLRSEDEADYYCQSYDSSLSAWLFGGGTKLTVLG
# modifications: B11 antibody variable H region; B11 antibody variable L region
# Legend:
# Daudi cells = assay: Subcutaneous scid/Daudi non-Hodgkin lymphoma xenograft; type: in vivo, scid mice; details: twice weekly i.p. from day 1
# mouse FcγRIV = biological target: T1, mouse FcγRIV (Mus musculus, UniProt A0A0B4J1G0); assay: B11 isotype variant binding to FcγR (Biacore), mouse FcγRIV
# T1 construct: made in house; host or cells: HEK293E (transient, adherent)
# T1 sequence (A0A0B4J1G0 21-249): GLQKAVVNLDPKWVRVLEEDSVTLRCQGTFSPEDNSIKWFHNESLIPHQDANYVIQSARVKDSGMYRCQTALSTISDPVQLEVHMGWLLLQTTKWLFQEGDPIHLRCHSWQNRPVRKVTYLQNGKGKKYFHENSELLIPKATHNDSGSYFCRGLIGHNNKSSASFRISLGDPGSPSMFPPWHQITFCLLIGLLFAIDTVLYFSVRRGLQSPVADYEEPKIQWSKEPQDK
# Description: His-tagged human FcγRIIIa or mouse FcγRIV were expressed transient in adherent HEK293E cells, purified using Ni-NTA chromatography and characterized using SDS-PAGE and/or Biacore. Surface plasmon resonance (SPR) measurements were performed using a Biacore 3000 instrument. Goat α-human-F(ab)′2 F(ab)′2 fragment (Jackson laboratories) was immobilised with a CM-5 chip using a standard amine coupling protocol. IgG1 B11, IgG4 B11, or 297Q B11 were diluted to 15 and 60 μg/mL respectively and added to the surface at […] for 3 min. His tagged human FcγRIIIa or mouse FcγRIV were pre-incubated with an α-HIS antibody (R&D Systems) at a 2:1 molar ratio before addition to the chip surface, 30 μL/min, 1 min. After each cycle the surface was regenerated twice with glycine buffer pH 1.7.
# [1] = system: B lymphoma cell line (CL-01); assay: Antibody-dependent cell-mediated cytotoxicity (ADCC) with natural killer effector cells; type: cell-based; details: human Natural Killer effector cells
# From the text: Buffy coats from human donors (ordered through Blodcentralen, Lund) were used to isolate peripheral blood mononuclear cells (PBMCs), and subsequently NK cells. Briefly, peripheral blood components were separated using Ficoll Paque PLUS (Amersham Biosciences, Sweden) in LeucoSep tubes (Greiner Bio-One). The PBMC fraction was removed and thoroughly washed in ice-cold DPBS (Invitrogen), before magnetic labeling and separation of the NK cell population using positive or negative NK cell isolation kits and MACS LS columns (Miltenyi Biotec). The purity of the obtained NK cell fractions was analyzed using flow cytometry, after staining with α-CD56 antibodies (BD Biosciences). Target cells were harvested, and incubated in medium with or without the respective antibodies (2 μg/mL) for 60 min on ice. Cells were thereafter washed and resuspended in cold medium before dispension into FACS tubes. Subsequently, isolated NK cells were diluted in ADCC medium and dispensed together with the respective antibody-coated target cells at varying effector/target cell ratios (40:1, 20:1, 5:1 and 1:1). All experiments were performed in triplicates. After completed incubation ToPo-Pro-3 dye and counting beads (Invitrogen) were added and cells were analyzed for membrane permeabilization using flow cytometry.
# Daudi lymphoma cells = assay: Programmed cell death (PCD) assay, Daudi cells; type: cell-based
# Description: Target cells were seeded in 96-well culture plates at a density of 2×10^6 cells/mL culture medium. Titrated concentrations of IgG1 B11 or different negative and positive control antibodies were added to the cells, in the absence or presence of anti-human Fab fragment (Jackson ImmunoResearch) for cross-linking. The cells were then incubated for 16 hours at 37° C. in a humidified atmosphere of 5% CO2. The cells were harvested and stained for Annexin V-488/Propidium Iodide (Invitrogen, Sweden) and analysed using flow cytometer (FACS Calibur, BD Bioscience).
# [2] = system: HUVEC, HMVEC or peripheral blood B cells; assay: CDC of normal ICAM-1 expressing cells; type: cell-based
# Description: Target cells were harvested and incubated in RPMI medium with antibodies at 5 μg/mL or at titrated concentrations between 0.01-100 μg/mL for 60 min on ice. Cells were thereafter washed and resuspended in cold medium before dispension into flow cytometry tubes. Treatments were performed in triplicates. Human serum, normal or heat-inactivated, (Sigma, Sweden) was added to tubes and the samples were incubated for 2 h at 37° C. After completed incubation ToPo-Pro-3 was added at a final concentration of 0.3 μM and cells were analyzed for membrane permeabilization using flow cytometry.
# PBMC [3] = assay: PBMC cytokine release; type: cell-based
# From the text: (§1) We next assessed IgG B11 effects on PBMC cytokine release and cell proliferation. In order to maximize chances of identifying any PBMC agonistic properties of IgG B11, we used two different antibody coating-protocols where antibody is hyper-cross-linked as previously described (62).
# PBMC [4] = assay: PBMC / T cell proliferation; type: cell-based; details: immobilised antibody or in solution
# From the text: as §1
# [5] = Serum antibody levels of treated xenografted mice (ELISA); type: in vivo; details: serum at end of experimentation
# Description: We next performed a dose-titration experiment to establish IgG B11 in vivo potency and the minimal dose achieving maximal anti-tumor activity, using the scid/ARH-77 model system. […] Mouse serum antibody trough concentrations were determined by ELISA at the end of experimentation. Trough antibody concentrations were then plotted against percent of maximal in vivo anti-tumour activity, and against percent of maximal ICAM-1 receptor occupancy and tumour cell PCD at corresponding antibody concentrations in vitro (FIGS. 3C, 3D, 3E, 3F and 3G). Strikingly, a near perfect correlation between antibody concentration and in vitro tumour cell receptor occupancy, in vitro tumor cell PCD, and in vivo anti-tumour activity was observed, consistent with ICAM-1 dependent direct cell cytotoxicity underlying in vivo anti-tumour activity.
# recombinant human ICAM-1 = recombinant human ICAM-1 (Homo sapiens, UniProt P05362); assay: ELISA binding to recombinant human ICAM-1, ICAM-2 or ICAM-3; details: versus ICAM-2, ICAM-3
# ARH-77 xenograft tissues = details: compared to control IgG, untreated and rituximab-treated mice
# Description: (§2) (A) ARH-77 cells were injected subcutaneously into the left flank of SCID mice (n=8 per group). Mice were treated with the different B11 isotypes twice weekly. […] Statistical significance was calculated relative to control antibody treatment using Kruskal-Wallis Test (Nonparametric ANOVA) with Dunn's Multiple Comparisons Test. Statistical significance was considered for *p<0.05, **p<0.01, and ***p<0.001.
# ARH-77 cells = assay: Subcutaneous scid/ARH-77 xenograft, treatment from the day after cell inoculation (prophylactic model)
# Description: Tumor cells were injected subcutaneously into the left flank of SCID mice. Mice received twice-weekly intraperitoneal injections with B11, control antibody or rituximab at doses of 20, 2 and/or 0.2 mg/kg commencing one day after tumor cell inoculation. There were 8 to 10 animals per treatment group. (A) Tumor volume as a function of antibody dose. (B) Kaplan-Meier survival graph as a function of antibody dose. […] Statistical significance was calculated relative to control antibody treatment using Kruskal-Wallis Test (Nonparametric ANOVA) with Dunn's Multiple Comparisons Test (tumor volume) or the log-rank test (mouse survival) using Graphpad Instat or Prism software, respectively. Statistical significance was considered for *p<0.05, **p<0.01, and ***p<0.001.
# Tumor cells were injected subcutaneously into the left flank of SCID mice. Mice received twice-weekly intraperitoneal injections with B11 at doses of 0.02-20 mg/kg commencing day after tumor cell inoculation. There were 8-10 animals per treatment group. (A) Tumor volume as a function of antibody dose. (B) Kaplan-Meier survival graph as a function of antibody dose. Statistical significance was calculated relative to control antibody treatment using Kruskal-Wallis Test (Nonparametric ANOVA) with Dunn's Multiple Comparisons Test (tumor volume) or the log-rank test (mouse survival) using Graphpad Instat or Prism software, respectively. Statistical significance was considered for *p<0.05, **p<0.01, and ***p<0.001. Graphs illustrate representative experiments out of several performed.
# as §2
# Mice were anaesthetized with a mixture of sevofluran and oxygen prior to myeloma cell inoculation and 1-5×10^6 myeloma cells were then subcutaneously injected in a volume of 100 μl into the left flank. Treatment with antibodies by intraperitonial (i.p.) injections was started either the day after cell inoculation (prophylactic model) or when tumors reached a size of approximately 100 mm^3 (established model).
# recombinant human ICAM-1, sequence (P05362 28-532): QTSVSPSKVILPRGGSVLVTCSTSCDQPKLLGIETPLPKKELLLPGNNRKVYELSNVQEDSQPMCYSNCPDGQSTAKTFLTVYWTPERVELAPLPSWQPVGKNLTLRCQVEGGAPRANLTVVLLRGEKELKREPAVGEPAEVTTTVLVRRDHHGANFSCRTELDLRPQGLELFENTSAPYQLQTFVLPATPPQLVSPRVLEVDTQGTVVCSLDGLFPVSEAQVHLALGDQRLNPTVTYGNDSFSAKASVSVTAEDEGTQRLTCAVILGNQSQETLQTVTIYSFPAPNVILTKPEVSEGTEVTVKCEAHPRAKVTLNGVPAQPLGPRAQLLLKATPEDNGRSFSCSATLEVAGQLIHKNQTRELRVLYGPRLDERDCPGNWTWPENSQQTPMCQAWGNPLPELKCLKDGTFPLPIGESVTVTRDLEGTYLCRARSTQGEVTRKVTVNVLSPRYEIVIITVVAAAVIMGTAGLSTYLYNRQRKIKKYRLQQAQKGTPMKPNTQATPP
molecule,measurement,setting,value
B1,survival of tumor bearing mice,Daudi cells,prolonged survival of tumor bearing mice
same,tumor growth,Daudi cells,"significantly and equally efficaciously compared to rituximab, prevented tumor growth"
same,binding to murine FcγRIV,mouse FcγRIV,strong binding
same,ADCC of target tumor cells,[1]; listed as B11,mediated FcγRIIIA-dependent ADCC
same,ADCC of target tumor cells,[1]; listed as IgG B11 IgG1,mediated ADCC of target tumor cells
same,PCD-induction,Daudi lymphoma cells; ICAM-1 expressing Daudi lymphoma cells,dose dependent PCD-induction
same,programmed cell death by immobilised antibody,"Daudi lymphoma cells; antibody immobilised by either coating protocol, data not shown",induced programmed cell death
same,CDC of normal cells,[2],did not confer ADCC or CDC
same,CDC of normal cells,[2]; listed as B11,not significantly affected
same,PBMC cytokine release,"PBMC [3]; antibody in solution, resting or lipopolysaccharide pre-stimulated PBMCs",did not induce or enhance cytokine release
same,PBMC cytokine release,"PBMC [3]; immobilised antibody, or in solution with or without cross-linking reagent","did not, however, induce PBMC cytokine release"
same,PBMC cytokine release,"PBMC [3]; immobilised antibody, or in solution with or without cross-linking reagent, listed as B11",not significantly affected
same,cell proliferation,PBMC [4],did not induce cell proliferation
same,cell proliferation,PBMC [4]; listed as B11,not significantly affected
same,In vivo IgG Levels,[5]; Dose 0.02 mg/kg,0.06 ± 0.02 µg/mL
same,In vivo IgG Levels,[5]; Dose 0.2 mg/kg,1.2 ± 0.4 µg/mL
same,In vivo IgG Levels,[5]; Dose 2 mg/kg,20 ± 2.9 µg/mL
same,specificity for ICAM-1,recombinant human ICAM-1,high specificity
same,F4/80 positive host effector cell (macrophage) infiltration of tumor tissue,ARH-77 xenograft tissues,massive influx
same,F4/80 positive host effector cell (macrophage) infiltration of tumor tissue,ARH-77 xenograft tissues; listed as B11,significantly increased
same,tumor growth,"ARH-77 cells; 20 mg/kg twice weekly i.p., commencing one day after tumor cell inoculation",completely prevent tumor-growth
same,anti-tumor activity in dose-titration experiment,ARH-77 cells; B11 0.02-20 mg/kg twice weekly i.p.,peaked at the 2 mg/kg dose and remained near maximal at a dose of 0.2 mg/kg
same,survival,"ARH-77 cells; IgG B11 at 2 mg/kg, ten-fold lower dose than rituximab",complete survival
same,anti-tumor activities of IgG B11 isotype switch variants (rank order),"ARH-77 cells; twice weekly treatment, s.c. ARH-77",increased in the order of IgG1N297Q<IgG4<IgG1
